IntAct's records for PubMed 21957239

B1: Sodium-dependent dopamine transporter (Homo sapiens), Q01959 (parent)
chain: MSKSKCSVGLMSSVVAPAKEPNAVGPKEVELILVKEQNGVQLTSSTLTNPRQSPVEAQDRETWGKKIDFLLSVIGFAVDLANVWRFPYLCYKNGGGAFLVPYLLFMVIAGMPLFYMELALGQFNREGAAGVWKICPILKGVGFTVILISLYVGFFYNVIIAWALHYLFSSFTTELPWIHCNNSWNSPNCSDAHPGDSSGDSSGLNDTFGTTPAAEYFERGVLHLHQSHGIDDLGPPRWQLTACLVLVIVLLYFSLWKGVKTSGKVVWITATMPYVVLTALLLRGVTLPGAIDGIRAYLSVDFYRLCEASVWIDAATQVCFSLGVGFGVLIAFSSYNKFTNNCYRDAIVTTSINSLTSFSSGFVVFSFLGYMAQKHSVPIGDVAKDGPGLIFIIYPEAIATLPLSSAWAVVFFIMLLTLGIDSAMGGMESVITGLIDEFQLLHRHRELFTLFIVLATFLLSLFCVTNGGIYVFTLLDHFAAGTSILFGVLIEAIGVAWFYGVGQFSDDIQQMTGQRPSLYWRLCWKLVSPCFLLFVVVVSIVTFRPPHYGAYIFPDWANALGWVIATSSMAMVPIYAAYKFCSLPGSFREKLAYAIAPEKDRELVDRGEVRQFTLRHWLKV
partner: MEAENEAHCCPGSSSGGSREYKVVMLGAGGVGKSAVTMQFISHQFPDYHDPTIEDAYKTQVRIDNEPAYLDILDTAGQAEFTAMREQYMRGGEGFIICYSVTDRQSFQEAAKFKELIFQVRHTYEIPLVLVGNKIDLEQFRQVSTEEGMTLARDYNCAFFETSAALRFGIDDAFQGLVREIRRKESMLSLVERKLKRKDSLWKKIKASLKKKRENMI

Variants of: B1
Details: with rit2_rat Rit2, Q5BJQ5

| effect of a mutation on the interaction | Variant |
| --- | --- |
| increasing interaction strength | F587A;R588A;E589A;K590A |
